Among the data in US20200165325A1 are In vitro neutralization IC80 values, retold here.

Where only a bound is given, the exact number is not on record here.

The target of experiment [1] is HIV-1 Env of strain 231966.c02 (HIV-1).
Experiment [2] deals with HIV-1 Env of strain Du422.1 (HIV-1).
Experiment [3] has as its target HIV-1 Env of strain X2131_C1_B5 (HIV-1).
For experiment [4], the target named is HIV-1 Env of strain R1166.c01 (HIV-1).
The target in experiment [5] is HIV-1 Env of strain 620345.c01 (HIV-1).
Experiment [6] has as its target HIV-1 Env of strain ZM197M.PB7 (HIV-1).
Experiment [7] concerns the target HIV-1 Env of strain ZM247v1(Rev-) (HIV-1).
The target of experiment [8] is HIV-1 Env of strain CNE17 (HIV-1).
The target in experiment [9] is HIV-1 Env of strain Ce703010054_2A2 (HIV-1).
Experiment [10] deals with HIV-1 Env of strain CNE20 (HIV-1).
Experiment [11] concerns the target HIV-1 Env of strain Q461.e2 (HIV-1).
Experiment [12] has as its target HIV-1 Env of strain ZM135M.PL10a (HIV-1).
In experiment [13] the target is HIV-1 Env of strain R2184.c04 (HIV-1).
In experiment [14] the target is HIV-1 Env of strain 6540.v4.c1 (HIV-1).
Experiment [15] concerns the target HIV-1 Env of strain P0402_c2_11 (HIV-1).
For experiment [16], the target named is HIV-1 Env of strain 3415.v1.c1 (HIV-1).
For experiment [17], the target named is HIV-1 Env of strain 0815.v3.c3 (HIV-1).
Experiment [18] has as its target HIV-1 Env of strain 6535.3 (HIV-1).

On to NIH45-46 G54F IgG (antibody), for which the In vitro neutralization IC80 was 0.24 µg/mL in experiment [1]; > 50 µg/mL in [2]; 0.41 µg/mL in [3]; 1.32 µg/mL in [4]; > 50 µg/mL in experiment [5]; 0.23 µg/mL in experiment [6]. The In vitro neutralization IC80 in [7] is 2.45 µg/mL; in experiment [8], 0.287 µg/mL; in experiment [9], 0.07 µg/mL; in experiment [10], 3.91 µg/mL; in experiment [11], 0.135 µg/mL; in [12], 0.43 µg/mL. The In vitro neutralization IC80 in experiment [13] is 0.054 µg/mL; in experiment [14], > 50 µg/mL; in experiment [15], 0.047 µg/mL; in experiment [16], 0.029 µg/mL; in [17] it was 0.014 µg/mL; in experiment [18], 0.27 µg/mL.

As for NIH45-46 G54W IgG (antibody), the In vitro neutralization IC80 in experiment [1] is 0.11 µg/mL; in experiment [2], > 50 µg/mL; in experiment [3] it was 0.24 µg/mL; in experiment [4] it was 0.51 µg/mL; in experiment [5], > 50 µg/mL; in [6], 0.18 µg/mL. For the same substance, the In vitro neutralization IC80 was 2.6 µg/mL in [7]; 0.127 µg/mL in [8]; 0.077 µg/mL in experiment [9]; 0.48 µg/mL in experiment [10]; 0.091 µg/mL in experiment [11]; 0.16 µg/mL in experiment [12]. For the same substance, the In vitro neutralization IC80 is 0.036 µg/mL in experiment [13]; > 50 µg/mL in experiment [14]; 0.023 µg/mL in experiment [15]; 0.023 µg/mL in experiment [16]; 0.003 µg/mL in experiment [17]; 0.13 µg/mL in experiment [18].

For NIH45-46 G54Y IgG (antibody), the In vitro neutralization IC80 in [1] is 0.23 µg/mL; in experiment [2] it was > 50 µg/mL; in experiment [3], 0.39 µg/mL; in experiment [4] it was 0.84 µg/mL; in [5], > 50 µg/mL; in experiment [6], 0.21 µg/mL. Moreover, the In vitro neutralization IC80 in experiment [7] is 3.57 µg/mL; in [8], 0.264 µg/mL; in [9], 0.07 µg/mL; in experiment [10] it was 2.4 µg/mL; in [11], 0.103 µg/mL; in experiment [12], 0.3 µg/mL. Further, the In vitro neutralization IC80 was 0.045 µg/mL in experiment [13]; > 50 µg/mL in experiment [14]; 0.049 µg/mL in experiment [15]; 0.037 µg/mL in experiment [16]; 0.015 µg/mL in experiment [17]; 0.24 µg/mL in [18].

Take NIH45-46 IgG (wild type) (antibody): the In vitro neutralization IC80 is 9.64 µg/mL in experiment [1]; > 50 µg/mL in experiment [2]; 0.88 µg/mL in experiment [3]; 1.21 µg/mL in [4]; > 50 µg/mL in experiment [5]; 0.55 µg/mL in experiment [6]. Further, the In vitro neutralization IC80 in [7] is 24.5 µg/mL; in experiment [8], 0.734 µg/mL; in experiment [9], 0.538 µg/mL; in experiment [10], > 50 µg/mL; in experiment [11], 0.291 µg/mL; in experiment [12], 2.79 µg/mL. Also, the In vitro neutralization IC80 in experiment [13] was 0.127 µg/mL; in experiment [14] it was > 50 µg/mL; in [15], 0.214 µg/mL; in experiment [16], 0.086 µg/mL; in experiment [17], 0.052 µg/mL; in experiment [18], 0.54 µg/mL.
